Test results as given in patent CN115141281A (dated 2022).

Target: T1, 人环氧合酶-2(COX-2) (human, UniProt P35354 18-604, limits assumed)
T1 construct: also called 人COX-2; 重组人COX2
T1 sequence (looked up): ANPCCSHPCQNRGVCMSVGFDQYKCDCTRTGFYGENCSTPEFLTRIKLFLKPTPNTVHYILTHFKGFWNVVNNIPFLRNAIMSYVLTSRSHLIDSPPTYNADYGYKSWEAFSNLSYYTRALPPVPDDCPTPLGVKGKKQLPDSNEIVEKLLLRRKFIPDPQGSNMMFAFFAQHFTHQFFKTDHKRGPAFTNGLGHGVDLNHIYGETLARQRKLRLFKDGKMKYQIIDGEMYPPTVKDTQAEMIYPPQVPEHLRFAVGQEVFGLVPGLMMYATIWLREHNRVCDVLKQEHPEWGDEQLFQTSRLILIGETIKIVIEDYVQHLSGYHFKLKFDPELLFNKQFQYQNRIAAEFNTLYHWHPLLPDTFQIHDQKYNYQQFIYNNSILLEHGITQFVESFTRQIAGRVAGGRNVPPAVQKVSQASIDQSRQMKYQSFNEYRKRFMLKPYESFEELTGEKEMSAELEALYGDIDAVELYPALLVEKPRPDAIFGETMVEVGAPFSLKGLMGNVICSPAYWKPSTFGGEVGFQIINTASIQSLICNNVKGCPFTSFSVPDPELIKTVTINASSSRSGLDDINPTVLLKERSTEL
Experiment: BLI, antibody (25 nM) loaded on AHC sensor, two-fold dilutions of human COX-2 in solution

B1: COX-2-HM4E6单克隆抗体 (antibody, V domains shown)
VH: EVQLEESATELARPGASVKLSCKASGYIFSVLMILWIKQRPGQGLEWIGLCKMLIPNFNMRHALFGKATLTADKSSSTAYMQLSSLASEDSAVYYCAGFIDNIWYWGLGTTLAVSS
VL: DIVITQRPALMAASPGEKVTITCQDSGNVYRNEKPWYQQKSGISPKPWIYYATHFTKGVPARFSGSGSGTSYSLTITSMEAEDAATYYCTFGCKHFDHFGAGTKLELK
Kd: 0.696 nM
